Experiment: folding stability dG unfold (combined trypsin and chymotrypsin); higher = more stable
Description: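 Folding stability of de novo designed mini-proteins (<80 aa, no Cys; designed by TrROS, TrMRF, ProteinMPNN and the joint model) was measured by cDNA display proteolysis with trypsin and chymotrypsin. Each protease was used at 11 concentrations in a threefold dilution series plus a no-protease condition. K50 was inferred by Bayesian fitting of sequencing counts, and dG unfold was derived against a sequence-predicted unfolded-state K50 (Tsuboyama et al. method). Sequences shown include variable-length N-terminal GS-type padding (SAGGSAGG...) inside a display construct carrying a PA tag. Rows were kept only if the AF2 dimer inter-PAE was >15, to exclude likely homo-oligomers.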

| Sequence | folding stability dG unfold [kcal/mol] |
| --- | --- |
| SAGGSAGGSGSMNISPNVKKFTIKSTGTEEKAKEEAEKIKNSLPKNVPIEITFEPLDPKEFKKSAGGSAGGS [r12_744_JUSTAS] | < -1 |
| SAGGSAGGSKLPDGPYKIRMPHNGRPYEMPIRVTSDGMIEVRMPGEGKKRTFPLNQAEIEPLDSAGGSAGGS [r12_782_TrROS] | < -1 |
| SAGGSAGGSKMTVRIDEVHTHKHDGRRYLSVPLRFPDNGKPIDFHIPPDDLKNLKPGEEITIESAGGSAGGS [r12_382_TrROS] | < -1 |
| SAGGSAGGSMPVTRPVATLPGPVTLYETTSPGERRLVRVTETPLPTPEPRTEVRLTVEVRPVGSAGGSAGGS [r12_353_JUSTAS] | < -1 |
| SAGGSAGGSMVVTTTEFDLNGVKATLSIDDTGSATAKIPDPSYKEDVLKLIPSSFSLTSFDAESAGGSAGGS [r12_9_JUSTAS] | < -1 |
| SAGGSAGGSNPDNNFPPRPKEPIKFPGEGMKIWVYKNHGHIFMEPPPGERQMGTIDPEDGKIVSAGGSAGGS [r12_420_TrROS] | < -1 |
| SAGGSAGGSPGNIPINIKIEPYDPDGGEKRKRTIPFPFQDPEGARRHLNKIADEFPPGWRVEISAGGSAGGS [r20_211_TrROS] | < -1 |
| SAGGSAGGSQKITIEWHKPGAWRIRIPGNGRERHLPMDKPLEEIANTAEKKFPNIPVEIERVKSAGGSAGGS [r12_423_TrROS] | < -1 |
| SAGGSAGGSRTFRSPSGVRYTETSSVLETSPDPENGLWSTVTSSVVSVDPGPPAPPPPLSPALVSAGGSAGG [r6_939_JUSTAS] | < -1 |
| SAGGSAGGSSEKEEKIRNIIKENFPENVIKKVEFNNDIVKIYGIPEYVKKAKEKLGSKNFIENSAGGSAGGS [r12_748_TrMRF] | < -1 |
| SAGGSAGGSSQEIQKRIQDRLRPRGPNRKPTPLEFTPKNGTITIKWKNPWHRKALKELPGIEPSAGGSAGGS [r12_623_TrROS] | < -1 |
| SAGGSAGGSTVPQSLPDSTATISSGPGGTWTVTFYPDEGSRTLTLPRSVVDASPVPLTELVSSSAGGSAGGS [r20_90_JUSTAS] | < -1 |
| SAGGSAGGSVIEKDPDDTILLKLEIPEEGKESLVTLPKDEVEKVIEEKGVKKLTALKLGEPKPSAGGSAGGS [r12_294_JUSTAS] | < -1 |
| SAGGSAMKDFADAPGITDIHPYPDGTISIHFKSSPNARDKIVEALRKEGNIDIKTHPDHGMIRIKVSAGGSA [r15_554_TrROS] | < -1 |
| SAGGSAPPKIDIDVEPNPEEGYYRVTVEFPDGWPLKIPYPYPDPEDNKRNAKKHVKWILKKHEELLSAGGSA [r15_477_TrROS] | < -1 |
| SAGGSARWMEYQIPFKSPQKREKLKEALMEHPGISEVDWPPNGTINITIPRDNPNRIKKAAKKAGFSAGGSA [r15_834_TrROS] | < -1 |
| SAGGSASSIPPGKILSKKEFEVELPDGKKLKITILEVPGPTLALTEEPGEKKPKTYKVEELKKLLESAGGSA [r15_329_JUSTAS] | < -1 |
| SAGGSATITLKPGEKVEITVTITVTEYKYDKNGKLVEKKTYKITVKATFTVDEDGNIHVEIKIEIESAGGSA [r2_154_TrROS_Hall] | > 6 |
| SAGGSEEEKAAKEAAEKELPPAEPKPVLTPDGVVTTYYPVTGAVEVTRYERDAAGVPVKVSSTTDPKSAGGS [r16_243_JUSTAS] | < -1 |

| Sequence | folding stability dG unfold [kcal/mol] |
| --- | --- |
| SAGGSGMAEAEALAAELAAATEKTPLGRTATVSVDTEVRPETGLTLLTVTTTGPGAPTTTPTTLPGRSAGGS [r16_812_JUSTAS] | < -1 |
| SAGGSGMNITVEPVLSPDGTLTVTTTDPATGKTVSTTTTPVPRGPLPPPVRPLLGLDDRNGRPLLLSAGGSA [r2_78_JUSTAS] | < -1 |
| SAGGSLEEIADELAQKPGFDEVKIDVWKPPNGNFMLSVHNKENNRELQIPLPPNWKPVGTYELPVKSAGGSA [r2_74_TrROS] | < -1 |
| SAGGSMITKETFPGSEVLTYPEKGIRVELDDKNVTVYDIKPLPGKGEPVVLSSKTISKEELEKLIKSSAGGS [r8_174_JUSTAS] | < -1 |
| SAGGSMTPAELANEIAEKLHEELPPDKSVTITMRFGSGPVTLTIPPDARVDVPEDRPLEVDEISIGSAGGSA [r2_391_JUSTAS] | < -1 |
| SAGGSMTVKEFTDPEEVEKAVEEMDSNEVAVMPVPERPVERVFTKINDKVIRETINGETVTTEELLSAGGSA [r2_280_JUSTAS] | < -1 |
| SAGGSPVLVPLEREETDPARGTRTRTRAYRLPERDIALVEREEIPFAPDGTPLRRTSEEVVSLEELLESAGG [r13_807_JUSTAS] | < -1 |
| SAGGSWIEKLPPDYTILLEKPDGTPFTRKIPANASEEEVLALNPPGSSKIELVSLDPSGRAVWRTPGSAGGS [r16_103_JUSTAS] | < -1 |
| SAGGTIKEIFEKNGAEIETNPGQGVVTVEMRKPKRDDNGMPKPKPKGKHEIKVPGGDPEQALDNLLKHSAGG [r13_924_TrROS] | < -1 |
| SAGGVDLSTLPSNSTVTLTEEKVIPVTKGSPKGSGKGYIETTTTTYTAVPPTGTWLSTTTPSISIIESAGGS [r8_486_JUSTAS] | < -1 |
| SAGGVSIEKDVTSSDELLAALPPDRPVRIEYTPPDGSSRELEVDPADLSLDIPAGVKYKVRIEVLPPESAGG [r13_461_JUSTAS] | < -1 |
| SAGLYLVKNKETKEIVTVPAENLSDEQLKAGFEVVKLPPVKINITVESAEEAEALAKLFPDKVEVTVNESAG [r14_638_TrROS_Hall] | < -1 |
| SAGMFYVLKTKRPTPSAPPEVLAADPNAEVETEYKLSPDTSEEEIKKIKEELKNKGWKEVKLVPISELKSAG [r5_60_JUSTAS] | < -1 |
| SAGMSTSSPTAKSTVLETSEEGNTVTKKVKVTTPSKDSSGNSSTTTTTTTITTELKGKPEPKTPEYYAKSAG [r5_70_JUSTAS] | < -1 |
| SAGMTINNTGSVEELKKLPDVVEIEKEGNKYTIKMPGETVEVELNPPKPVPKGPPYTSESEKKKKSEKSSAG [r5_2_JUSTAS] | < -1 |
| SAGMVKEVKSEEEAKKLPPGTLVKLTKPDPTSNKDVTYYRTYPDGSGGILAKSDSSGKVDLTPEIKKILSAG [r5_490_JUSTAS] | < -1 |
| SAGMVLAPSTTETRLPGLRVRTETVVTTELAPDGRPTDVVAPTTTVTVTPPAPPPVFTEESVAAAFELESAG [r14_442_JUSTAS] | < -1 |
| SAGPKINLYRLPNGFLAAKSRSTRPDGKELGTWEKTYLVPGSGKPRTLELPIYDNEKGYVIYAYEEDYSAGG [r19_185_TrMRF] | < -1 |
| SAGPPEPITWKIRNPKNGKKRKIQIWQPDEQMAVQIRDPNDGKPRREIPMPLEEARDLLKSDGFEVEPVSAG [r5_291_TrROS] | < -1 |

| Sequence | folding stability dG unfold [kcal/mol] |
| --- | --- |
| SAGSELLEKFPNVKVEEYEEEIEFSPEKKEEKEEVDETDGNTITYKKIEVLPEGKAKVKIYTAKLPEVSAGG [r19_125_JUSTAS] | < -1 |
| SAMEISIDPIEDGPVRVTETYKFPGYTRITVKEIPKELLEKGVPLSELPNVPVLEEEIVEIPPPSPELKSAG [r14_856_JUSTAS] | < -1 |
| SAMKPGTVVKVTIIPTEEKLIYNVPEKTVLKSSRTVDATVTKVSTPGSKVTLEIDLPDLPPGSEIELGLSAG [r14_412_JUSTAS] | < -1 |
| SAMTIPVLVEGDIEKLEEREEEIKREVAEELGLPEDLKDLKVEVLEIEPLPDEDGKPTKVRMLVEVHLRSAG [r14_736_TrMRF] | < -1 |
| SAMVKTKDGKELEITRKAKPDELTEEEIKALAEEEVKKLVPEDLEVEVEVEISREPDGTYVVSVPVKKKSAG [r14_389_JUSTAS] | < -1 |
| SANKFSPEEYAEWMIRTARRQVKENRQQGDPEKPKKVTIHFWEEHFPPYRKRIKKEAKEDGLPVEIEPPSAG [r14_908_TrROS] | < -1 |
| SAPPLPPDAVVETESEPVGVDPTENGTLTYYRRTVRVTLPDGSLTLESLVFRDPATGSSTSSVLRETALSAG [r14_293_JUSTAS] | < -1 |
| SASDEDQKKQQEQQKPPIKPPEFPVKLNGKKIEKIRFNPPTDRIWFEWPNGKEIPIDPGMSLEEILKKISAG [r14_59_TrROS] | < -1 |
| SASLPEKLAKELLPEAKEIKILEVKTEPDPNSDRPVTTVKMEAELEGGKKKLTVTLSPGPLKIKVTPEPSAG [r14_397_JUSTAS] | < -1 |
| SAVKVEEKDDVTIKTYTEPEGGLELVETIDKNGNLIAKTEIKVERKPDAKGNLYVTKVSTKTTVLNPNPISA [r9_262_JUSTAS] | < -1 |
| SDAIKNQTIEELLDQLPPGDEPGEPKEFTIPGYEIKITDFEPEKDDGGGPRPRRVIEVEDPNGPIEIPIESA [r9_279_TrROS] | < -1 |
| SDDDFADSPEAKKNMENMKPVPPPPTITINVKGDDPEDALDDIREHFPGLDPSNIKSVETTDGTLTITFQSA [r9_723_TrROS] | < -1 |
| SDPQQLPPELIDNIAKEFPHIKAIEIQPHPPGMVHVDAEYRDDGKEKRVEFQIPNPNGNTHQFEIEIRKPSA [r9_678_TrROS] | < -1 |
| SGDSIHIPPNDLEYAKRIVKDLLDNGRDTIMMNSPEYKKELKEALPGVKVEPVPPMPPPPPSPEDKDKLNSA [r9_639_TrROS] | < -1 |
| SMPTTVLGSSPSVLPDGSVRYPVAVRRYPEYGVLVEETVTYFPGSGKFVPERRVEIPPDNPAALEWVRRESA [r9_980_JUSTAS] | < -1 |
| SMTLEEALANPEKLAEELAPPPTPAVDEEIDIVDPLTNTTRPARATVLLEPGRRVIVLPEDGAEYPVDPESA [r9_548_JUSTAS] | < -1 |
| SNAKDLARELFEEHGYPIEPESIDPDEDWVTFRFEPPGEPPYDISIDVDPEEGKLKVTIDPQNGYITIPVSA [r9_1119_TrROS] | < -1 |
| SPEGKDEKGVSYPIIVEKPDPKITPEKIKKAIEEAGGKVTKIVRPKKGKLLVVDVEVTDPEKAIEAIKKDSA [r9_1154_TrMRF] | < -1 |
| SSLDDLSPEQAVDQAKFMVRMIRESRDNGKPEQYPKMINMLRRMASSAPPPDRKAVKEVLEEFKIPPEWFSA [r9_182_TrROS] | < -1 |
